# In the nanobody polyreactivity screen of Harvey et al. (2022):
# Assay: yeast display, Sf9 membrane polyspecificity reagent, FACS + sequencing; frameworks hold sequencing errors
# Method in brief: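 A nanobody's polyreactivity label depends on the gate it was sorted from. Yeast display cells were stained with 10% biotinylated, detergent-solubilized Sf9 membrane reagent for 1 hour at 4 °C, enriched on streptavidin microbeads and sorted by FACS. The low and high (top ~1%) gates were set on anti-HA fluorescence for expression and streptavidin fluorescence for reagent binding.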
row,Sequence,polyreactivity (PSR sort gate)
1,QVQLVESGGGLVQAGGSLRLSCAASGSIFYFNAMGWYRQAPGKERELVARISGSSGRTYYADSVKGRFTISRDNAKNTVYLQMNSLKPEDTAVYYCAARYYTSATMDYWGQGTQVTVSS,high polyreactivity
2,QVQLVESGGGLVQAGGSLRLSCAASGSIFYFNAMGWYRQAPGKERELVASITSGGSTNYADSVKGRFTISRDNAKNTVYLQMNSLKPEDTAVYYCNARFPYLSRWLVRGLASYDYWGQGTQVTVSS,low polyreactivity
3,QVQLVESGGGLVQAGGSLRLSCAASGSIFYFYARGWYRLAPGKERELVAAIRFTGGTTYYADSVKGRFTISRDNAKNTVDLQMNSLKPEDTADYYCAKQTSYWSRGFDYWGQGTQVTVSS,low polyreactivity
4,QVQLVESGGGLVQAGGSLRLSCAASGSIFYGNAMGGYRQAPGKERELVASITYSGGNTQYADSVKGRFTISRDNAKNTVYLQMNSLKPEVTAVYYCNARRYGVDTGWRQGLDSWGQGTQVTVSS,low polyreactivity
5,QVQLVESGGGLVQAGGSLRLSCAASGSIFYGNAMGWYRPAPGKERELVAGITSGVGTNYADSVKGRFTISRDNAKNTVYLQMNSLKPEDTAVYYCAARVYRYRHYDYWGQGTQVTVSS,high polyreactivity
6,QVQLVESGGGLVQAGGSLRLSCAASGSIFYGNAMGWYRQAPGKEREFVAAINWSGARTYYADSVKGRFTISRDNAKNTVSLQMNSLKPEDTAVYYCAAGRPFSFRYEFDYWGQGTQVTVSS,high polyreactivity
7,QVQLVESGGGLVQAGGSLRLSCAASGSIFYGNAMGWYRQAPGKEREFVAGISWYGGSTYYADSVKGRFTISRDNAKNTVYLQMNSLKPEDTAVYYGATVADEPRAYSGYEESDYWGQGTQVTVSS,low polyreactivity
8,QVQLVESGGGLVQAGGSLRLSCAASGSIFYGNAMGWYRQAPGKERELVARISWSGSNTRYADSVKGRFTISRDNAKNTVYLQMNSLKPEDTAVYYCNVKPSARGSPLYDYWGQGTQVTVSS,high polyreactivity
9,QVQLVESGGGLVQAGGSLRLSCAASGSIFYGNAMGWYRQAPGKERELVASITYSGGTTNYADSVKGRFTISRDNAKNTVYLQMNSLKPEDTAVYYCNADIYPDRYGSTNYDFNYWGQGTQVTVSS,low polyreactivity
10,QVQLVESGGGLVQAGGSLRLSCAASGSIFYGYAMGWYRQAPGKEREFVAGIDSSGGSTSYADSVKGRFTISRDNAKNTVYLQMNSLKPEDTAVYYCNAPDPSDQHGDYWGQGTQVTVSS,low polyreactivity
11,QVQLVESGGGLVQAGGSLRLSCAASGSIFYGYAMGWYRQAPGKERELVAAIRSRGGSTYYADSVKGRFTNSRDNEKNTVYLQMKCLKPEDTAVYYCNAVCRARTLCSNTYGYWGQGTQVSVSS,high polyreactivity
12,QVQLVESGGGLVQAGGSLRLSCAASGSIFYGYAMGWYRQAPGKERELVAAISGGGRTNYADSVKGRFTISRDNAKNTVYLQMNSLKPEDTAVYYCARRSQRGIYSMYYWGQGTQVTVSS,low polyreactivity
13,QVQLVESGGGLVQAGGSLRLSCAASGSIFYGYAMGWYRQAPGKERELVAAISRGGSTYADSVKGRFTISRDNAKNTVYLQMNSLKPEDTAVYYCARRYWNCPLRGWYGYWGQGTQVTVSS,high polyreactivity
14,QVQLVESGGGLVQAGGSLRLSCAASGSIFYGYAMGWYRQAPGKERELVAAISRRGGSTYYADSVKGRFTISRDIAKNTVDLQMNSLKPEDTAVYYCAAVGLWYEYYYWGQGTQVTVSS,high polyreactivity
15,QVQLVESGGGLVQAGGSLRLSCAASGSIFYGYAMGWYRQAPGKERELVASITSSGGSTYYADSVKGRFTISRDNAKNTVYLQMNSLKPEDTAVYYCNADGRPDWYVVRGGFEYWGQGTQVTVSS,low polyreactivity
16,QVQLVESGGGLVQAGGSLRLSCAASGSIFYGYAMGWYSQAPGKERELVAAISSSGGSTYYADSVKGRFTISRDNAKNTVYLQMNSLKTEDTAVDYCAADWDFVNGWFNYWGKGTQVTVSS,high polyreactivity
17,QVQLVESGGGLVQAGGSLRLSCAASGSIFYGYDMGWYRQAPGKERELVAAITIGGGTTYYADSVKGRFTISRDNAKNTVYLQMNSLKPEDTAVYYCAAEFYYTIYSNKVGYDYWGQGTQVTVSS,high polyreactivity
18,QVQLVESGGGLVQAGGSLRLSCAASGSIFYHNAMGWYRQAPGKERELVAAITSRGGRTTYADSVKGRFTISRDNAKNTVYLQMNSLKPEDTAVYYCNAVYTGYSYISRVDYWGQGTQVTVSS,low polyreactivity
19,QVQLVESGGGLVQAGGSLRLSCAASGSIFYHNSMGWYRQAPGKERELVAAITSGGSTHYADSVKGRFTISRDNAKNTVYLQMNSLKPEDTAVYYCNARDRRRTNLLDYWGQGTQVTVSS,low polyreactivity
20,QVQLVESGGGLVQAGGSLRLSCAASGSIFYHYAMGWYRQAPGKERELVAAISQSGGGTYYADSVKGRFTISRDNAKNTVYLQMNSLKPEDTAVYYCIRLSKQKQEFDYWGQGTQVTVSW,high polyreactivity
21,QVQLVESGGGLVQAGGSLRLSCAASGSIFYHYAMGWYRQAPGKERELVAAITITGGSTYYADSVKGRFTISRDNAKNTVYLQMNSLKPEDTAVYYCARKWYVHYNYWGQGTQVTVSS,high polyreactivity
22,QVQLVESGGGLVQAGGSLRLSCAASGSIFYHYVMGWYRQAPGKERELVAAISSSGRTYYADSVKGRFTISRDNAKNTVYLQMNSLKPEDTAVYYCAAYQKYYLRKYEYWGQGTQVTVSS,low polyreactivity

row,Sequence,polyreactivity (PSR sort gate)
1,QVQLVESGGGLVQAGGSLRLSCAASGSIFYINDAMGWYRQPPGKERELVAAISSSDGTTYYADSVKGRFTISRDNAKNTVYLQMNSLKPEDTAGYYCAAETRAVGYDGDYWGQGTQVTVSS,high polyreactivity
2,QVQLVESGGGLVQAGGSLRLSCAASGSIFYINTMGWYRQPPGKERELVAAINFSDGRTYYADSVKGRFTISRDNAKNTVYLQMNSLKPEDTAVYYCAADVYPSEYDYWGQGTQVTVSS,low polyreactivity
3,QVQLVESGGGLVQAGGSLRLSCAASGSIFYIYAMGWYRQAPGKERELVAAISWRTSSTYYADSVKGRFTISRDNAKNTVYLQMNSLKPEDTAVYYCAAETWLGSWRQVGMDYWGQGTQVTVSS,high polyreactivity
4,QVQLVESGGGLVQAGGSLRLSCAASGSIFYKYMGWSRQAPGKERELVAAITWSGGSTYYADSVKGRFTISRDNAKNTVYLQMNSLKPEDPAVYYCAARDYTRYGYGYWGQGTQVTVSS,high polyreactivity
5,QVQLVESGGGLVQAGGSLRLSCAASGSIFYKYMGWYRQAPGKERELVAAISWSGGRTYYADSVKGRFTISRDNAKNTVYLQMNSLKPEDTAVYYCNRVVLWRIGDKAFEYWGQGTQVTVSS,high polyreactivity
6,QVQLVESGGGLVQAGGSLRLSCAASGSIFYKYMGWYRQAPGKERELVAAITWSGGSTYYADSVKGRFTISRDNAKNTVYLQMNSLKPEDTAVYYCNADDRHSRVGHSWQDAQFDYWGLGTQVTVSS,high polyreactivity
7,QVQLVESGGGLVQAGGSLRLSCAASGSIFYKYMGWYRQAPGKERELVAAMTWSGGSTYYADSVKGRFTISRDNAKNTVYLQMNSLKPEDTAVYYCNADDRHSRVGHSWQDAQFDYWGQGTQVTVSS,high polyreactivity
8,QVQLVESGGGLVQAGGSLRLSCAASGSIFYKYTMGWYRPAPGKERELVAAITKSGGSTYYADSVKGRFTISRDNAKNTVYLQMNSLKPEDTAVYYCAARRYRYYSRGSWGQGTQVTVSS,high polyreactivity
9,QVQLVESGGGLVQAGGSLRLSCAASGSIFYKYTMGWYRQAPGKERELVAAITKSGGSTYYADSVKGRFTISRDNAKNTVYLQMNSLKPEDTAVYYCAAQIGRSATRGSYGYWGQGTQVTVSS,high polyreactivity
10,QVQLVESGGGLVQAGGSLRLSCAASGSIFYLNAMGWYRQAPGKERELVAAINSGGTTNYADSVKGRFTISRDNAKNTVYLQMNSLKPEDTAVYYCATDGYYYYYRVYKFDYWGQGTQVTVSS,low polyreactivity
11,QVQLVESGGGLVQAGGSLRLSCAASGSIFYLYAMGWYRQAPGKERELVAGITWSGGRTYYADSVKGRFTISRDNAKNTVYLQMNSLKPEDTAVYYCAAYASRYRYGYWGQGTQVTVSS,high polyreactivity
12,QVQLVESGGGLVQAGGSLRLSCAASGSIFYLYTMGWYRQAPWKERELVAGISNGDRTYYADSVKGRFTISRDNAKNTVYLQMNSLKPEDTAVYYCAVTVYWYSRAAEYDYWGQGTQVTVSS,low polyreactivity
13,QVQLVESGGGLVQAGGSLRLSCAASGSIFYNNAMGWYRQAPGKERELVAAISGSGDSTYYADSVKGRFTISRDNAKNSVYLQMNSLKPEDTAVYYCNATPYVLWWSDMDYWGQGTQVTVSS,high polyreactivity
14,QVQLVESGGGLVQAGGSLRLSCAASGSIFYNNAMGWYRQAPGKERELVAAISWRGGSTYYADSVKGRFTISRDNAKNTVYLQMNSLKPEDTAVYYCNAGVRYRGFDYWGQGTQVTVSS,high polyreactivity
15,QVQLVESGGGLVQAGGSLRLSCAASGSIFYNYAMGWYRQAPGKEREFVAAISWSGDTTYYADSVKGRFTISRDNAKNTVYLQMNSLKPEDTAVYYCAAESYIWFWRPYYYWGQGTQVTVSS,low polyreactivity
16,QVQLVESGGGLVQAGGSLRLSCAASGSIFYNYAMGWYRQAPGKERELVAAIKRSGGITFYADSVKGRFTISRDNAKNTVYLQMNSLKPEVTAVYYCAADRSFGHHFWYTGKRYDYWGQGTKVTVSS,low polyreactivity
17,QVQLVESGGGLVQAGGSLRLSCAASGSIFYNYAMGWYRQAPGKERQLVATITRSDGSTYYADSVKGRFTISRDNAKNTVYLQMNSLKPEDTAVYYCNADSLWDSAFGYDYWGQGTQVTVSS,low polyreactivity
18,QVQLVESGGGLVQAGGSLRLSCAASGSIFYPYAMGWYRQAPGKEREFVAVISKGGTNTYYADSVKGRFTISRDNAKNTVYLQMNSLKPEDTAVYYCAARVDTYRAKYYYWGQGTQVTVSS,high polyreactivity
19,QVQLVESGGGLVQAGGSLRLSCAASGSIFYPYAMGWYRQAPGKERELVAAIRNGGSTYYADSVKGRFTISRDNAKNTVYLQMNSLKPEDTAVYYCAASVRRRHPFEYWGQGTQVTVSS,high polyreactivity
20,QVQLVESGGGLVQAGGSLRLSCAASGSIFYPYAMGWYRQAPGKERELVAAIRWRGGNTYYADSVKGRFTISRDNAKNTVYLQMNSLKPEDTAVYYCAADGKYLQGFGYYYWGQGTQVTVSS,high polyreactivity
21,QVQLVESGGGLVQAGGSLRLSCAASGSIFYPYAMGWYRQAPGKERELVAAISDSGDITYYADSVKGRFTISRDNAKNTVYLQMNSLKPEDTAVYYCAADRPWGYDYWGQGTQVSVSS,low polyreactivity
